Experimental data: the DeepSol protein solubility set

Assay: soluble on expression in E. coli; label from the status in PepcDB or PDB records

Sequence	soluble on expression in E. coli
MSLNFDWIKTRSDFDDDKPAVIDHAKQTSWTYQQLNARADNMAHYLTSQGVKKGDVIGIFAPNDIAILDLLFACFKTGAVFLPLNWRLNPKEIAAIVEDAQLKLLFYAEKHLSSLTDIDQNLLHMDIDVAQYDEIVNPDYHQPFQATPVEPQDLAALIYTSGTTGSPKGVMFSYESFVHNGANLELTYKFNSNYITIVSTPMFHVLGFNDTVLPVLMSGGTLILQRYFNGEELNDMIAQYHPTFIIMIPTMYYSTLRASNFNPENFRAMDYIIQGGSQPLPSIQAAFKQYGINIINGYGLTEAPLVLVNTPENSKRKPMSIGKAVMFVDARILDDNGEEVPTGEIGELAIKAKNVTPGYWNKPAETAKAFHGRYLLTGDLAKMDDDGDIFIIDRKKELIITGGENVLPSEVENALAEHPLVDRCVVVGYDHPKYGESIAAAIILREDEPHYAEILDQHMRSRLAGYKVPRMYVPVTHMPLNSTQKPDKLAIRQMMNDKVSQTLEGHHHHHH	soluble
MSLAEYKHILVGVDGSRQAKRALDKAIAVALRNQAELIIVTIMSGGDYVGLGNNTQVGFGYVDQQVMDESRQALEALVDQYRQKAQEAGVERVVTSVFYGHAKVDLAKSLPKEYQADLIMLGATGVNVVERMLLGSTASYVVANAVCDVLVVRTDLHNEGHHHHHH	soluble
MKDKQLRLRIYRSAFSSMKNAIVEKAREFGVPVILVDPSYTSSICPVHGSKIIYQPDGGSAPRVGVCGKGGERWHRDVVALYNLRKRAGDVLEHHHHHH	not soluble
MAFEKIIQLKNCRYDYTLSPSVKKFTLKDNTFFETKVGNYELTRLLEKVPNSGEGFQLKIIINKELTGAKINITDKFGLRLVDIFKSEDHHIHQEKFYFLMDSLVERGVFTKSER	not soluble
MQPHPETTPVTSCTIIDATDRSIRQTLGETSTLARLIWVDAGLASPPLCSGLARCGRCRVRITEAAPAPHEDDREFFSAEDISAGWRLACRHAPAHGMVVHVPLPVMPHRHASRPKHPGPFRLAVDLGTTSLQWSLLAPDGTVAAQGSETNPQMGAGSDVMSRIAMARSDKGRGRLRELVLQALRRIVADVEGTPATADAVPPAGSGDEPTTACGYESRVEELCVAGNTAMTAILADESVEGLASAPYRLEMRGGTALALPGLPPAWIPPLPAPFVGGDLSAGYLAVLTDHAPAFPFVLADLGTNGEFVLALSPERTLVTSVALGPALEGIGLTFGTVAQRGAITSFTLTPGGLVPYVLDGGEADGISGTGYISLVHALLRAGLLDVDGRFIQSPSSPLAARMARSIVSHRGEPCLPLARGLYLAARDIEEILKVKAAFSLAFERLLATAQMPSHALSGIHLAGALGQHALPADLEGLGFIPPGSGGRTRAVGNTSLRGAELLLTSPPLRDTLNTWREGCTVVDLTAAPDFSAAFLRHMHFHFLEHHHHHH	soluble
MSYGDGLSGAEYLASIYGTEKDKVNCSFFFKTGACRHGDKCSRAHHTPTFSPTVVLKNFYHNPVVDVRQADAFDKVGKRNDQEQRYFDDFYEEVFVEMERKYGEVEEINVCENIGEHMVGNVYVKFMKEEDAEKAKNDLNNRWFNGQPIYAELCPVTDFRESRCRQHEVTTCSKGGFCNFMHLKAISAELGDRLYGRRGRRADAAGHYPSQRGGSGGGGGGGGGGGYGSGGGWGGGGGGRDRDRGGWGGGGGGRGYGGGGGGGGYGYGGGGGGRRRSRSRDRRRY	not soluble
MGSDKIHHHHHHMFDFKELEAFVWVVRLGSFRKGAAKLYLTQPSISDRITRLEDSVGESLLDRSARPVQPTLRGREFFTYAERLLEGREEAMRLFQDEESFSGTLRLGVIETIASSWCPTFMRRLAERYPQLTIELTVDISPFLHQRLAENDLDMLFAMDGVAPGLCAIQTPLCTYEMGMFAAPEMAATLQRGGPAAFAETAFISFSKQARPYRELVAYLTALGIDTPRIHRTSTLMTIMRMSIEGVGIGVLPVATVRDAVESGSLVRLTLEEPLPPMIYDAIWRSANYPSFCASVARLAKQCATDYAQDHGKLSSPASMKGYVDT	not soluble
MGSDKIHHHHHHMDSMQTTETFQVLKIGADAYIKRRNQRLLSNHRKDLRKFTRAEAFTYLDIDAKTLDKYVATADFDPRRHEDSQWLINIEEMYQLRDLLPENLRKASKFKRSDNQKMQVIVIQNQKGGVGKTVSAATIASGLATEFHQEYRVGLIDMDGQATLSMYYAPEADLEGCLSVGDLMMNNFDLDEGETLEQVVSNAFLPTTIPNLRILPASQSDRAIEGWFHEQVFGQKLTSPYSLLNTIINAVQDEFDIIIIDTPPSLGYATYNAYFAATSVVFPLSITENDIDATCSYFSYIPQVWALLANANHRGYDFMKILITNHRDSATTTDLMNTLYDHFAPYMYSNEFKHSEAIRQSSSLLSTVFDMSKSEYPKSKATFQSAQQNCYEVTSQVLRDIVNVWREQEQA	not soluble
MAHHHHHHSLTTSHILGFPRVGAKRELKFAQERYWRKELAEQDLLDLAKALREKNWKHQAAANADFVAVGDFTFYDHILDLQVATGAIPARFGFDSQNLTLDQYFQLARGNKDQFAIEMTKWFDTNYHYLVPEFQKSTAFKANPAHYVNQIREAKALGLNFKPVIVGPLTFLWLGKEKGEAFNRFDLLNQLVPVYVEILNALVAEGAEWIQIDEPALALDLPAEWVEAYKSVYTELSKVNAKLLLATYFGSVAEHAELLKALPVAGLHLDLVRAPEQLAAFEDYSKVLSAGVIEGRNIWRANLNKVLDVLEPLKAKLGERLWIAPSCSLLHTPFDLEVEVQLKEKNTALYSWLSFTLQKVEELNVLKQALNNGRASVQAALDASQVAADARATSKEIHRPEVAERLANLPKGADQRKSPFAERIVKQNAWLNLPLLPTTNIGSFPQTTEIRHARASFKKGELSLADYEAAMKKEIEYVVRRQEELDLDVLVHGEAERNDMVEYFGELLDGFAFTKFGWVQSYGSRCVKPPVIYGDVTRPEPMTVRWSQYAQSLTNRVMKGMLTGPVTILQWSFVRNDIPRSTVCKQIGVALSDEVLDLEAAGIKVIQIDEPAIREGLPLKRADWDAYLQWAGEAFRLSSMGVQDDTQIHTHMCYSEFNDILPAIAALDADVITIETSRSDMELLTAFADFKYPNDIGPGVYDIHSPRVPTATEVEHLLRKALNVIPKERLWVNPDCGLKTRGWTETIDQLKVMVDVTKKLRAELAEG	soluble
MDARIVNALIGSVYETIRDVLGIEPKTGKPSTVSHIEIPHSLVTVIGITGGIEGSLIYSFSSETALKVVSAMMGGMEYNQLDELALSAIGELGNMTAGKLAMKLEHLGKHVDITPPTVVSGRDLKIKSFGVILKLPISVFSEEDFDLHLSVKSGG	soluble
MSLETKVAARDLSSLLSHCEAPVAALTVTAFKCKASACSVAPAPGSNTGLGALMSMAQAAQGLQTFPNIGDGLSNALTTALKTTGCFKVMAREDFEDLRREAEAAGITLKSASADYLVTGAITSLAVGAKTQSFGGGFVPLVGAVSRSTKSANISIDVRLVDVKASEVKASQTFDVSNERSSWGAGGAGWGGSGALFGAASSTQSPELDSVANESVIQAANYIVTQVAGSAAIPPVAAITKEGHHHHHH	not soluble
MGSDKIHHHHHHMTSTPHSPSEMFASIPGIFGFYPEESIVVLTLMHTKESCYQLGPVMRLDLKDLRYLSDIGDTLSAIEPDLVFGLIISGQKPEAIEDLRGLIEFVADCEIVPFDACWYTSAIESGGKYDAIWLNEAMTEAALEYQSWRKGRIPLIANTGITGEMIHAGHLPELSRKDIEKHYAQAEESEQWDEYLITERYAELFDDPSTSFRSAQECIDAFSQAVELMRTEKLITDAALTVAAFLKNKMSRDIIIECCVHNANTVKEALCYVSRHTKGFVRANALALYALCIVDSPWGNHITCVLQAAHNTLPFHHLTALVAEAYYRGLSGSIVDLVVSGSQEAQKHFGEATNVKSAV	not soluble
STMPLAELGARLYREKACFSCHSIDGSRLVGPSFKGLYGSTRTFEDGTTAVADENYLRESILQPGAKVVQGYPNVMPASYASLSEREVAALIEFIKQQQ	soluble
